Source: US7432061B2, “Assays for measuring matrix metalloproteinase activities” (BioZyme, Inc., priority 2002, dated 2008)
Primed or numbered codes have the meaning given here. The star is where a group is joined. Dabcyl″ = Dabcyl quencher at the N-terminus, CN(C)c1ccc(/N=N/c2ccc(C(=O)*)cc2)cc1; Flu = fluorescein label on the cysteine side chain; Dabcyl′ = CN(C)c1ccc(/N=N/c2ccc(C(=O)*)cc2)cc1; fluorescein = fluorescein label

Assays:
Type in all cases: biochemical
[1] = target: T1, collagenase 3 (Homo sapiens, UniProt P45452); test: kcat/Km of fluorescence peptide substrates; details: for Col-3 Specificity Constant: fluorescence substrate, + Gel = PRIONEX GELATIN 1:250
[2] = target: T2, stromelysin 1 (Homo sapiens, UniProt P08254); test: kcat/Km of fluorescence peptide substrates; details: for reduction of substrate selectivity for stromelysin 1 relative to FlSb1: fluorescence substrates; for Strom1 Selectivity v Col-3: fluorescence substrate, + Gel = PRIONEX GELATIN 1:250
[3] = target: T1, collagenase 3; test: Inhibition with type II collagen, FlSub3 cleavage; details: Time Period 0.85 to 2.10 Hours; 20 uM FlSub3 with bovine type II collagen
Experimental: In a 96 well plate, collagenase 3 (0.013 nM), collagenase 1 (1.25 nM), stromelysin 1 (0.8 nM), gelatinase A (0.025 nM), or gelatinase B (0.008 nM) were reacted with 20 uM FlSub3 in standard assay buffer in the presence of varying concentrations of bovine type II collagen (0.18-44 ug/ml). The type II collagen, a 1 mg/ml stock in 0.5M acetic acid, was transferred into assay buffer by passing the material through a biospin P6 column from Amersham. The reaction was initiated by addition of substrate to enzyme containing either buffer or an appropriate amount of type II collagen. Data points were taken every 15 min over a period of 15 hours using an excitation and emission wavelength of 350 and 485 nm respectively. The usable data (1-6 hours), was taken and the percent inhibition by type II collagen was calculated for each enzyme and plotted as a function of inhibitor concentration and time in the assay. It should be noted that the percent inhibition varies with time as the bovine substrate is consumed during the reaction course.

[4] = target: T3, collagenase 1 (Homo sapiens, UniProt P03956); test: Cleavage of biglycan and type IV collagen by MMPs (gel); details: equal concentration of enzyme as col-3
T3 sequence (P03956 100-469): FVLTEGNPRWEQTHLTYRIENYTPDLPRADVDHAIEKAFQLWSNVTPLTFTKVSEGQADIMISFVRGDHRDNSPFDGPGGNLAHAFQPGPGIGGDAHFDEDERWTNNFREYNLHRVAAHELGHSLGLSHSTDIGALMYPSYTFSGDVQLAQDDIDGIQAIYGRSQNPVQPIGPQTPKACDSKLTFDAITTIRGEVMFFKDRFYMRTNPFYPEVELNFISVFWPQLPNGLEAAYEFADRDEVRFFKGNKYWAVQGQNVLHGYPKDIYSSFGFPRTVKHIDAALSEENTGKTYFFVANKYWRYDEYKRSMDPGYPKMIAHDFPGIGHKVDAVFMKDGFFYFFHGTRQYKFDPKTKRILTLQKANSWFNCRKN
Experimental: (§1) Reactions were carried out on a small scale to optimize the enzyme to full length protein ratios. For biglycan, optimum results were obtained with a ratio of 1:100 (20-40 nM col-3 and 4.3 μM biglycan in a 10 μl reaction). For type IV collagen, best results were found with a ratio of 1:50 (28 nM col-3 and 2 μM type IV collagen). For comparison with the other MMPs, an equal concentration of enzyme was used.

[5] = target: gelatinase B (Homo sapiens, UniProt P14780); test: as above; details: equal concentration of enzyme as col-3
Experimental: as §1

[6] = target: T4, gelatinase A (Homo sapiens, UniProt P08253); test: as above; details: earlier experiment
T4 sequence (P08253 110-660): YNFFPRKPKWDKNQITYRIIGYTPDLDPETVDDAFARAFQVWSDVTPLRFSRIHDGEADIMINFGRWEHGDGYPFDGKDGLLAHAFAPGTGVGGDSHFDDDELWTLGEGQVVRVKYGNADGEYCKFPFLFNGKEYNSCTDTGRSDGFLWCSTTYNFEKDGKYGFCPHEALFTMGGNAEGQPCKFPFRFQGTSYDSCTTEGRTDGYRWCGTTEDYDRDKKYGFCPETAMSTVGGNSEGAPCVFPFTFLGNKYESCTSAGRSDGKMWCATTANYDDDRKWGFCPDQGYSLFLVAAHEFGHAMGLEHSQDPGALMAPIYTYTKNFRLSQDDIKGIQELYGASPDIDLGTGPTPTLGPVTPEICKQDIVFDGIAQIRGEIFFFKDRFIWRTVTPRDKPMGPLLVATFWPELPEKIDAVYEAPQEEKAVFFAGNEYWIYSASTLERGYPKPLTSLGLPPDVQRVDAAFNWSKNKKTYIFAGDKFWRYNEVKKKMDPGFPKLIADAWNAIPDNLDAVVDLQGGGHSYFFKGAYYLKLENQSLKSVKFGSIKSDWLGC
Experimental: as §1

[7] = target: T2, stromelysin 1; test: as above; details: equal concentration of enzyme as col-3
Experimental: as §1

T2 sequence (P08254 100-477): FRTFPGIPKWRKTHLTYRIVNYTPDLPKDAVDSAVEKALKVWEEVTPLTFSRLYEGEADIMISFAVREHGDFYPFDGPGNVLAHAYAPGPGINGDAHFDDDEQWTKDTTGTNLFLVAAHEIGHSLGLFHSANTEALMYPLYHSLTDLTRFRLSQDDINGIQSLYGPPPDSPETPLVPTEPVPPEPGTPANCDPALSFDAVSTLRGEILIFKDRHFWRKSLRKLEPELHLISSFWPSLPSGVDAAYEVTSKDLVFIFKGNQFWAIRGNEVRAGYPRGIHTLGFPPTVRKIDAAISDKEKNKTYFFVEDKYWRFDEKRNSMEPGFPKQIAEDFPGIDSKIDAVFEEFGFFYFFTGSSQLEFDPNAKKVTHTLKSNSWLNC
Chain of gelatinase B (P14780 94-707): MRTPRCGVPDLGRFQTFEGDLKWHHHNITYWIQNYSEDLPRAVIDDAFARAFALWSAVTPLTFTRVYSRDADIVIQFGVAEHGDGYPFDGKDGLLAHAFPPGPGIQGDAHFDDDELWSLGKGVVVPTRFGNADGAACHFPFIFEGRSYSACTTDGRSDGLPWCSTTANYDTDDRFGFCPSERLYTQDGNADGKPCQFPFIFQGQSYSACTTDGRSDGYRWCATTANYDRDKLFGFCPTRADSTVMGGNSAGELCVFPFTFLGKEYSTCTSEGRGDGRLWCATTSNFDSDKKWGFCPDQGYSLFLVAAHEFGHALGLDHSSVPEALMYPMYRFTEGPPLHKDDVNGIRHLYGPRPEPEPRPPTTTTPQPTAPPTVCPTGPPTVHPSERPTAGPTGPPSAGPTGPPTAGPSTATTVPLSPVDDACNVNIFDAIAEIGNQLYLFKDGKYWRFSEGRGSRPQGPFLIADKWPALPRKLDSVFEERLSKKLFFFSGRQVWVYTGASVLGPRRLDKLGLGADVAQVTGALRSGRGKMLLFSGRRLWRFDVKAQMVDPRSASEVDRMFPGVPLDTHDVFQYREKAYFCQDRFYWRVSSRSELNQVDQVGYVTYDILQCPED

Dab-SYPSGIHLC(Flu)LQR-NH2 ({Dabcyl″}-SYPSGIHLC(Flu)LQR-NH2) [FlSb2, fluorescence substrate based on the sulfate transporter]
less sensitive for collagenase 3 compared to the consensus substrate ([1]; compared to FlSb1): 100 fold | selectivity compared to FlSb1 ([1]; kcat/Km against the five MMPs): less selective

Dabcyl-GPHPFRGC(Flu)-NH2 ({Dabcyl″}-GPHPFRGC(Flu)-NH2) [FISb4]
reduction of substrate selectivity for stromelysin 1 relative to FlSb1 [2]: approximately 10 fold | Col-3 Specificity Constant [1]: 3.27E+04 1/sM

Dabcyl-GPLGMRGC(Fluorescein)-NH2 ({Dabcyl′}-GPLGMRGC(fluorescein)-NH2) [FISb1]
Strom1 Selectivity v Col-3 [2]: 707.5 unitless | Strom1 Selectivity v Col-3 ([2]; listed as Fluorescence Substrate 1): 3665 unitless

Dabcyl-GPVNLHGC(Flu)-NH2 ({Dabcyl″}-GPVNLHGC(Flu)-NH2) [FISb3]
reduction of substrate selectivity for stromelysin 1 relative to FlSb1 [2]: approximately 10 fold | Col-3 Specificity Constant [3]: 1.11E+06 1/sM | Col-3 Specificity Constant [1]: 4.21E+05 1/sM

type IV collagen: full length protein digested with collagenase 3 and other MMPs
cleavage of full length protein by collagenase 1 [4]: processed | cleavage of full length protein by gelatinase B [5]: processed | cleavage of full length protein by gelatinase A [6]: No detectable cleavage

B1: biglycan: proteoglycan, full length protein digested with collagenase 3 and other MMPs (protein, UniProt P21810 38-368, looked up)
Biglycan: DEEASGADTSGVLDPDSVTPTYSAMCPFGCHCHLRVVQCSDLGLKSVPKEISPDTTLLDLQNNDISELRKDDFKGLQHLYALVLVNNKISKIHEKAFSPLRKLQKLYISKNHLVEIPPNLPSSLVELRIHDNRIRKVPKGVFSGLRNMNCIEMGGNPLENSGFEPGAFDGLKLNYLRISEAKLTGIPKDLPETLNELHLDHNKIQAIELEDLLRYSKLYRLGLGHNQIRMIENGSLSFLPTLRELHLDNNKLARVPSGLPDLKLLQVVYLHSNNITKVGVNDFCPMGFGVKRAYYNGISLFNNPVPYWEVQPATFRCVTDRLAIQFGNYKK
cleavage of full length protein by stromelysin 1 [7]: able to degrade | cleavage of full length protein by gelatinase B [5]: able to degrade
